Tests used:
[1] = biological target: T1, full length human PD-1 on cells (human, UniProt Q15116 25-288); test: cell-based receptor-ligand blocking, flow cytometry: CHO-K1-hPD-1 cells, blocked ligand biotinylated PD-L1-Fc, streptavidin-Alexa 488
T1 construct: Also used here for PD-1 on human T cells/PBMC; also called CHO-K1-hPD-1; hPD-1
Experimental: CHO-K1-hPD-1 cells were cultured and expanded in T-75 culture flasks to 60-80% confluence. The culture media was aspirated, and the cells were washed twice with PBS. The cells were treated with TrypLE™ Express (Invitrogen) and collected. Trypsin was neutralized by the addition of 8 mL culture medium, and cell counts were determined. […] The cells were blocked for 15 minutes at 37° C. Meanwhile, the wells of 96-well round-bottom plates were blocked with 200 uL blocking buffer for 1 hour at 37° C. The blocking buffer was discarded, and 200 uL cells were dispensed to each well of the 96-well plates (2×10^5 cells/well). The plates were centrifuged at 500 g for 5 minutes, and the supernatants were discarded. The cells were resuspended in 100 uL antibody prepared in blocking buffer. […] The plates were incubated at 4° C. for 90 minutes and washed twice with 200 uL blocking buffer. […] The plates were washed three times with blocking buffer and resuspended in 200 uL blocking buffer. The mean fluorescence intensity (MFI) was determined using FACS Calibur (BD).

[2] = biological target: T2, human PD-1^ECD-hFc protein (Immunogen A) (human, UniProt Q15116 25-167); test: ELISA, coated human PD-1ECD-hFc; antibody 100 nM
T2 construct: Biotinylated for the Octet assay; also called PD-1-hFc; hPD-1^ECD-hFc; not shown: human IgG Fc fragment (hFc)
Experimental: (§1) 100 uL of the diluted recombinant proteins were added to each well of 96-well plate. The plates were sealed with plastic film and incubated at 4° C. overnight. The plates were washed twice with wash buffer (PBS+0.01% (v/v) Tween20), and incubated with blocking buffer (PBS+0.01% (v/v) Tween20+1% (w/w) BSA) at room temperature for 2 hours. The blocking buffer was aspirated away, and 100 uL of purified anti-PD-1 antibodies were added to each well and incubated for 2 hours at 37° C. The plates were washed three times with wash buffer (PBS+0.01% (v/v) Tween20). HRP-conjugated secondary antibody (Sigma) was added to each well and incubated for 2 hours at 37° C. After the plates were washed three times with wash buffer, 100 uL TMB substrate was added to each well and incubated for 30 minutes at room temperature. 100 uL stop solution (0.1N HCl) was added to each well to stop the reaction. The absorbance at 450 nm was measured with an ELISA plate reader (384plus SpectraMax, Molecular Devices).

[3] = biological target: T1, full length human PD-1 on cells; test: flow cytometry, CHO-K1-hPD-1 cells; antibody 1 nM
Text: CHO-K1 cells were stably transfected with pIRES plasmid containing the nucleic acid sequence encoding full length human PD-1 (see Example 2, step 2) to generate CHO-K1 cells stably expressing human PD-1 (herein referred to as CHO-K1-hPD-1 cells). Other CHO-K1 were stably transfected with pIRES plasmid containing the nucleic acid sequence encoding full length cyno PD-1 to generate CHO-K1 cells stably expressing cyno PD-1 (herein referred to as CHO-K1-cPD-1 cells). CHO-K1-hPD-1 and CHO-K1-cPD-1 cells were cultured and expanded in T-75 culture flasks to 90% confluence. The culture media was aspirated, and the cells were washed twice with HBSS (Hanks Balanced Salt Solution, Invitrogen). The cells were treated with enzyme-free cell dissociation solution (Versene solution, Invitrogen) and collected. The cells were then washed twice with HBSS, cell counts were determined, and cells were resuspended with HBSS at 2×10⁶ cells/mL. Goat serum was added to the cell suspension to a final concentration of 1%, and the cells were blocked for 30 minutes on ice and then washed twice with HBSS. The cells were collected after centrifugation and resuspended in FACS buffer (HBSS+1% BSA, v/v) at 2×10⁶ cells/mL. 100 uL of the cell suspension were then added to each well of 96-well plate. 100 uL of purified anti-PD-1 antibodies from Example 2 were added to each well of the 96-well plate and incubated for 2 hours on ice. […] The samples were washed three times with FACS buffer, and 100 uL fixation buffer (4% paraformaldehyde v/v) were added to each well and incubated for 10 minutes. The cells were then washed twice with FACS buffer and resuspended in 100 uL FACS buffer. The mean fluorescence intensity (MFI) was determined using FACS Calibur (BD), and the results are shown in FIGS. 7-8 and in Tables 10-11.

[4] = biological target: T2, human PD-1^ECD-hFc protein (Immunogen A); test: ELISA, coated human PD-1ECD-hFc; antibody 0.01 nM
Experimental: as §1

[5] = biological target: T3, cyno PD-1^ECD-hFc protein (cyno monkey, UniProt B0LAJ3 25-167); test: ELISA, coated cyno PD-1ECD-hFc; antibody 10 nM
T3 construct: Prepared by the method for Immunogen A; also called Cyno Monkey PD-1^ECD-hFc; cyno monkey PD-1-hFc; not shown: human IgG Fc fragment (hFc) and its junction to the ECD
Experimental: as §1

[6] = biological target: T2, human PD-1^ECD-hFc protein (Immunogen A); test: ELISA, coated human PD-1ECD-hFc; antibody 10 nM
Experimental: as §1

[7] = biological target: T3, cyno PD-1^ECD-hFc protein; test: ELISA, coated cyno PD-1ECD-hFc; antibody 0.1 nM
Experimental: as §1

[8] = biological target: T2, human PD-1^ECD-hFc protein (Immunogen A); test: protein-based receptor-ligand blocking ELISA: coated PD-1ECD-hFc, blocked ligand biotinylated PD-L2ECD, streptavidin-HRP
Experimental: Purified PD-1^ECD-hFc (Example 2) was diluted with PBS to a final concentration of 1.0 ug/mL, and 100 uL diluted PD-1^ECD-hFc were added to each well of a 96-well plate that was then sealed with plastic film and incubated at 4° C. overnight. The plate was washed twice with wash buffer (PBS+0.01% (v/v) Tween 20) and incubated with blocking buffer (PBS+[…]) at room temperature for 2 hours. The blocking buffer was aspirated, and 50 uL purified anti-PD-1 antibodies from Example 2 were added to each well of 96-well plate. […] The plate was washed three times with wash buffer (PBS+0.01% (v/v) Tween 20). 100 uL HRP-conjugated streptavidin (Sigma) were then added to each well and incubated at 37° C. for 2 hours. The plate was then washed three times with wash buffer, and 100 uL TMB substrate were added to each well. After 30 minutes of incubation at room temperature, the reaction was stopped by adding 100 uL stop solution (0.1N HCl). The absorbance at OD450 nm was measured with an ELISA plate reader (384plus SpectraMax, Molecular Devices).

T3 sequence (B0LAJ3 entry or part of it limits assumed): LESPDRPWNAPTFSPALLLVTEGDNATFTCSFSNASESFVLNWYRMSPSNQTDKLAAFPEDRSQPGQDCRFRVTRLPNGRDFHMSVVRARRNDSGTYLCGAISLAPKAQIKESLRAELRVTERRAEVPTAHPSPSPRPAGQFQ
T2 sequence (Q15116 25-167): as the sequence (B0LAJ3 entry or part of it limits assumed) above, with E2D, A10P, L19V, A35T, R75Q counted along it
T1 sequence (Q15116 25-288 limits assumed): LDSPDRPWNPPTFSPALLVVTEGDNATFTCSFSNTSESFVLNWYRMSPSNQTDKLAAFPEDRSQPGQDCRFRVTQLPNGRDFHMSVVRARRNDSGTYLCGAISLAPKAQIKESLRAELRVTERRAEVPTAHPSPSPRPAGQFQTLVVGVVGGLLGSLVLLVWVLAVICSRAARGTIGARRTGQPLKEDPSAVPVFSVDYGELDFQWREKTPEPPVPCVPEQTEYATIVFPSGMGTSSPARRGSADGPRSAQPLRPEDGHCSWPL

B1: chimeric anti-PD-1 antibody 21G8F11 (antibody, V domains shown)
VH: EVQLLESGGGLAQPGGSLRLSCAASGFSFNTYLMHWVRQAPGKGLEWVSAISGGGGNTYYADSVKGRFTISRDNSKNTLYLQMNSLRAEDTAVYYCAKENRIPVAPFDYWGQGTLVTVSS
VL: DIQMTQSPSTLSASVGDRVTITCRASQSISTWLAWYQQKPGKAPKLLIYKASSLESGVPSRFSGSGSGTEFTLTISSLQPDDLATYYCQQYNSFSWTFGQGTKVEIK
notes: Purified from hybridoma of Harbour H2L2 mice: human variable regions, rat constant regions
Which results are given for B1?
IC50 (read off the curve) [1]: ~6 nM; OD450 nm [2]: 2.73; Mean fluorescence intensity [3]: 166; OD450 nm [4]: 0.669; OD450 nm [5]: 2.63; OD450 nm [6]: 2.87; OD450 nm [7]: 0.972; IC50 (read off the curve) [8]: ~0.6 µg/mL

B2: chimeric anti-PD-1 antibody 76G5B3 (antibody, V domains shown)
VH: QVQLVESGGGVVQPGRSLRLSCAASGFTFSDYGFHWVRQAPGKGLEWVAVIWYDGSNEYYTDSVKGRFTISRDNSKNTLYLQMNSLRAEDTAMYFCVVNPFDYWGQGTLVTVSS
VL: DIQMTQSPSSLSAFVGDRVTITCRASQGINHYLAWYQQKPGKAPNLLILAASTLLSGVPSRFGGRGSGTDFTLIISSLQPEDVATYYCQKYDSAPYTFGQGTKLEIK
notes: as for B1
How did the “IC50 (read off the curve)” value [1] turn out when B2 was run?
Its value is about 0.8 nM.

What about the OD450 nm [2] of the same binder?
The OD450 nm was 3.05.

What about the Mean fluorescence intensity [3] of the same binder?
The Mean fluorescence intensity was 166.

What about the OD450 nm [4] of the same binder?
The OD450 nm was 0.65.

What about the OD450 nm [5] of the same binder?
Its OD450 nm is 1.62.

What about the OD450 nm [6] of the same binder?
Its OD450 nm is 3.12.

And the OD450 nm [7]?
The OD450 nm was 0.56.

And the “IC50 (read off the curve)” value [8]?
Its value is about 1 nM.

B3: chimeric anti-PD-1 antibody 32B5C7 (antibody, V domains shown)
VH: EVQLLESGGGLVQPGGSLRLSCAASGFTFSSYAMSWVRQAPGKGLEWVSTISGSGGTTYYADSVKGRFTISRDNSKNTLYLQMNSLRAEDTAVYYCTLTGDPDYWGQGTLVTVSS
VL: EIVLTQSPATLSLSPGERATLSCRASQSVSSYLAWYQQKPGQAPRLLIYDASKRATGIPARFSGSGSGTDFTLTISSLEPEDFAVYYCQQRNNWPLTFGGGTKVEIK
notes: as for B1
For B3, which “IC50 (read off the curve)” value [1] is on record?
The value was about 6 nM.

What about the OD450 nm [2] of the same binder?
Its OD450 nm is 3.05.

What about the Mean fluorescence intensity [3] of the same binder?
Its Mean fluorescence intensity is 51.1.

And the OD450 nm [4]?
The OD450 nm was 0.55.

What about the OD450 nm [5] of the same binder?
Its OD450 nm is 1.51.

And the OD450 nm [6]?
Its OD450 nm is 3.14.

What about the OD450 nm [7] of the same binder?
The OD450 nm was 0.29.

And the “IC50 (read off the curve)” value [8]?
The value was about 2 nM.

Reference: US20180214548A1 (SHANGHAI YUNYI HEALTHCARE AND TECHNOLOGY, published 2018)
